From patent publication US20220324953A1 (JIANGSU HENGRUI MEDICINE, published 2022)
Where a chain is given by its changes, count along the chain named. One block for each binder: values may come before it.

Legend:
[1] = molecular target: T1, human CTGF (antigen of the Biacore assays) (human, UniProt P29279 27-349); assay: Biacore, antibody captured on Protein A, CTGF in flow, 1:1 fit
T1 construct: also called antigen human CTGF; human CTGF protein
T1 sequence (looked up): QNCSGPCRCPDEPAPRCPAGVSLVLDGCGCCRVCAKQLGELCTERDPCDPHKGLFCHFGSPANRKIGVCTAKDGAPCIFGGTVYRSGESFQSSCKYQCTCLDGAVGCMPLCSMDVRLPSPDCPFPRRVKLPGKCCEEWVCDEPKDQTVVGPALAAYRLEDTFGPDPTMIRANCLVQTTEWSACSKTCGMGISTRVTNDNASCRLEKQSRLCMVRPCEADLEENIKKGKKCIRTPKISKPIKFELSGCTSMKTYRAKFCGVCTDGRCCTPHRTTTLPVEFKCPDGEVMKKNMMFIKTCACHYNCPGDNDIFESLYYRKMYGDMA
Excerpt: (§1) A certain amount of each of the test antibodies was affinity-captured with Protein A biosensor chip (Cat. # 29127556, GE), and then a certain concentration of human or mouse CTGF was allowed to flow through the surface of the chip. The reaction signals were detected in real time with Biacore instrument to generate a binding and dissociation curve. After the dissociation was completed in each cycle, the biosensor chip was washed and regenerated with Glycine-HCl regeneration solution pH 1.5 (Cat. # BR-1003-54, GE). The running buffer for the assay was 1×HBS-EP buffer solution (Cat. # BR-1001-88, GE).

[2] = molecular target: T2, mouse CTGF (antigen of the Biacore assay) (mouse, UniProt P29268 26-348); assay: Biacore, antibody captured on Protein A, mouse CTGF in flow, 1:1 fit
T2 construct: also called mouse CTGF protein
T2 sequence (looked up): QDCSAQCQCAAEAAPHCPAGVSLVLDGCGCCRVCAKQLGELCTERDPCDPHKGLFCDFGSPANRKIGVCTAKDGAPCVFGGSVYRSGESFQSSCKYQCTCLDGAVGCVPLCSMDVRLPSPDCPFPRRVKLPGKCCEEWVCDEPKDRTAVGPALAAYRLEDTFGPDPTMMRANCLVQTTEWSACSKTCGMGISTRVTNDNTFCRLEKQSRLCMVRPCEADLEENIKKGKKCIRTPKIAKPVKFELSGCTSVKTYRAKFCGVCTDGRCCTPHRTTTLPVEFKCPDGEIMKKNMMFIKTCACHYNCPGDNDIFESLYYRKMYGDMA
Excerpt: as §1

- Kd [1]: 3.85 nM
- koff [1]: 0.0302 s⁻¹
- kon [1]: 7.85e+06 M⁻¹ s⁻¹
- Kd [2]: 1.71 nM
- koff [2]: 0.0235 s⁻¹
- kon [2]: 1.38e+07 M⁻¹ s⁻¹
B1: chimeric antibody Ch95 (antibody, human IgG1, kappa, V domains shown)
VH: EVLLQQSGPVLVKPGPSVKISCKASGFTFTNYDIHWVKQSHGKSLEWIGLVYPYNGGTAYNQKFKDKATLTFDTSSSTAYMELNSLTSEDSAVYYCARWGLIPGTTSYFDVWGTGTTVTVSS
VL: QIVLSQSPPILSASPGEKVTMTCRASSSVSYIHWYQQKPRSSPKPWIYATSNLASGVPARFSGSGSGTSYSLTISRVEAEDAATYYCQQWNSNPWTFGGGTRLEIKR

- Kd [1]: 0.133 nM
- koff [1]: 0.00883 s⁻¹
- kon [1]: 6.62e+07 M⁻¹ s⁻¹
- Kd [2]: 0.0822 nM
- koff [2]: 0.0101 s⁻¹
- kon [2]: 1.23e+08 M⁻¹ s⁻¹
B2: chimeric antibody Ch164 (antibody, human IgG1, lambda, V domains shown)
VH: QVQLKQSGPGLVQPSQSLSITCTVSGFSLTTFGVHWIRQSPGKGLEWLGVIWRRGGTDYNAAFMSRLSITKDNSRSHVFFKMTSLQTDDSAIYYCARDGGFDYWGQGTTLTVSS
VL: QAVVTQESALTTSPGGTVILTCRSSIGAVTTSNYANWVQEKPDHLFTGLIGGTSNRAPGVPVRFSGSLIGDKAALTITGAQAEDDAMYFCALWYSTHYVFGGGTKVTVLG

- Kd [1]: 5.29 nM
- koff [1]: 0.0408 s⁻¹
- kon [1]: 7.7e+06 M⁻¹ s⁻¹
- Kd [2]: 2.44 nM
- koff [2]: 0.0339 s⁻¹
- kon [2]: 1.39e+07 M⁻¹ s⁻¹
B3: Hu95-41wk (antibody, human IgG1, kappa, V domains shown)
VH: EVQLVQSGAEVKKPGASVKVSCKASGFTFTNYDIHWVKQAPGQRLEWIGLVYPYNGGTAYNQKFKDKATLTFDTSASTAYMELSSLRSEDTAVYYCARWGLIPGTTSYFDVWGQGTTVTVSS
VL: EIVLTQSPATLSLSPGERATLSCRASSSVSYIHWYQQKPGQAPRPWIYATSNLASGIPARFSGSGSGTDYTLTISRLEPEDFAVYYCQQWNSNPWTFGGGTKVEIKR

- Kd [1]: 5.74 nM
- koff [1]: 0.0191 s⁻¹
- kon [1]: 3.32e+06 M⁻¹ s⁻¹
- Kd [2]: 2.42 nM
- koff [2]: 0.0137 s⁻¹
- kon [2]: 5.66e+06 M⁻¹ s⁻¹
B4: Hu95-42wk (antibody, human IgG1, kappa, V domains shown)
VH: B3 VH
VL: B3 VL with A42S, I57V, D69S

- Kd [1]: 7.39 nM
- koff [1]: 0.0303 s⁻¹
- kon [1]: 4.09e+06 M⁻¹ s⁻¹
- Kd [2]: 3.99 nM
- koff [2]: 0.0211 s⁻¹
- kon [2]: 5.29e+06 M⁻¹ s⁻¹
B5: Hu95-21wk (antibody, human IgG1, kappa, V domains shown)
VH: B3 VH with K38R, K67R
VL: B3 VL

- Kd [1]: 5.84 nM
- koff [1]: 0.0326 s⁻¹
- kon [1]: 5.59e+06 M⁻¹ s⁻¹
- Kd [2]: 2.87 nM
- koff [2]: 0.0225 s⁻¹
- kon [2]: 7.84e+06 M⁻¹ s⁻¹
B6: Hu95-31wk (antibody, human IgG1, kappa, V domains shown)
VH: B3 VH with I48M, A68V
VL: B3 VL

- Kd [1]: 0.466 nM
- koff [1]: 0.00693 s⁻¹
- kon [1]: 1.49e+07 M⁻¹ s⁻¹
- Kd [2]: 1.23 nM
- koff [2]: 0.0384 s⁻¹
- kon [2]: 3.12e+07 M⁻¹ s⁻¹
B7: chimeric antibody Ch147 (antibody, human IgG1, kappa, V domains shown)
VH: EVQLVESGGGLVQPEGSLKLSCAASGFSFNTYAMNWVRQAPGKGLEWVARIRTKSNNYATYYADSVKDRFTISRDDSESMLYLQMNNLKTEDTAMYYCVETGFAYWDQGTLVTVSA
VL: QIVLTQSPAIMSASPGEKVTITCSASSSVSYMHWFQQKPGTSPKLWIYSTSNLASGVPARFSGSGSGTSYSLTISRMEAEDAATYYCQQRSSYPLTFGAGTKLELKR
